Blank lines part the entries; values can stand above or below the binder they belong to.
Tests used:
[1] = target: T1, Human recombinant soluble TWEAK (Example 6) (human, UniProt O43508 99-249, limits assumed); assay: cell-based or functional assay
T1 sequence: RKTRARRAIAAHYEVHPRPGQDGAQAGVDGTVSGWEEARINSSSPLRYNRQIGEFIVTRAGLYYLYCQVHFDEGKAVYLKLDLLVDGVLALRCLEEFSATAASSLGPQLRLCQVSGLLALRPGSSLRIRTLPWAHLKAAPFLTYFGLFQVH

[2] = target: T2, Biotinylated human soluble TWEAK (amino acids 99-249 of SEQ ID NO: 68) (human, UniProt O43508 99-249, biotinylated); assay: SPR (Biacore 2000), biotinylated soluble TWEAK on streptavidin chip, antibody 100 nM as analyte, 25 C
T2 construct: also called Human TWEAK
T2 sequence: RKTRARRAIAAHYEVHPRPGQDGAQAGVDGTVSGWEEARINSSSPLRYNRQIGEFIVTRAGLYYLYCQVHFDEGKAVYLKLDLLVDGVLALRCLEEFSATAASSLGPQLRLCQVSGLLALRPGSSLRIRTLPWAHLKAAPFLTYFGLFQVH
Method: (§1) A Biacore 2000 instrument was used with a Biacore streptavidin coated sensor mounted into the system. The system buffer HBS-ET (10 mM HEPES pH 7.4, 150 mM NaCl, 1 mM EDTA, 0.05% Tween® 20) was used at a flow rate of 100 μl/min. The sample buffer was the system buffer. Biotinylated human soluble TWEAK (amino acids 99-249 of SEQ ID NO: 68) and biotinylated murine soluble TWEAK (amino acids 81-225 of SEQ ID NO: 69) was immobilized on different flow cells on the SA sensor at 150 RU each. The flow cell FC1 was used as a blank reference cell. Each antibody was injected into the system as an analyte at 100 nM at 100 μl/min for 2 min association time. The dissociation of the immunecomplexes were monitored for 5 min. The sensor surface was washed with HBS-ET for 10 seconds and regenerated using 2×2 minutes injections with 10 mM glycine pH 2.25. This procedure was done at 25° C. The kinetically rate limiting step of the complex dissociation phase in the interval [240 s-300 s] was taken to calculate the dissociation rate kd [1/s] (Biacore Evaluation Software 4.0). According to the equation t1/2 diss=ln(2)/(60×kd), the half-life of the immunocomplexes in minutes was calculated.

[3] = target: T3, human Flag-tagged soluble TWEAK (amino acids 106-249) (human, UniProt O43508 106-249); assay: receptor interaction ELISA: Flag-TWEAK 2.5 ng/ml preincubated with antibody, then on coated human Fn14:Fc (competitor m21)
T3 construct: The sentence gives amino acids 106-249 without naming the entry; also called Human TWEAK; not shown: Flag tag
T3 sequence: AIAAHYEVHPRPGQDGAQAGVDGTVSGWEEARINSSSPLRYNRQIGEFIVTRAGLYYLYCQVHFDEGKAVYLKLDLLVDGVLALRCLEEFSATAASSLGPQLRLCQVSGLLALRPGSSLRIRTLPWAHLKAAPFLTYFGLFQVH
Method: (§2) 96-well Maxisorp® plates (Nunc) were coated with 100 μl 1 μg/ml human Fn14:Fc (extracellular domain of human Fn14 (amino acids 1-75 of SEQ ID NO: 98) fused to Fc portion of human IgG1) in PBS per well for 1.5 h at room temperature and blocked with a solution of 5% FBS in PBS for 30 minutes at room temperature under shaking. […] After washing the Fn14-coated plate once with wash buffer (0.1% Tween® 20 in PBS), 100 μl of the TWEAK-antibody solution were transferred to each well and the plate was incubated for 1 h at room temperature, followed by four washes with wash buffer. Wells were filled with 100 μl of anti-FLAG-HRP detection antibody, diluted 1:5000 in blocking buffer, and incubated for 1 h at room temperature. After four more wash steps, the signal was developed by addition of 100 μl 3,3,5,5-Tetramethylbenzidine (TMB) solution for approximately ten minutes. The reaction was stopped by adding 100 μl of 1 N HCl, and absorbance measured at 450 nm (reference wavelength 620 nm).

[4] = target: T4, Mouse soluble TWEAK (untagged, Example 5) (mouse, UniProt O54907 105-249, limits assumed); assay: receptor interaction ELISA: mouse soluble TWEAK 4 ng/ml preincubated with antibody, then on coated mouse Fn14:Fc (competitor m22)
T4 construct: also called Murine TWEAK
T4 sequence: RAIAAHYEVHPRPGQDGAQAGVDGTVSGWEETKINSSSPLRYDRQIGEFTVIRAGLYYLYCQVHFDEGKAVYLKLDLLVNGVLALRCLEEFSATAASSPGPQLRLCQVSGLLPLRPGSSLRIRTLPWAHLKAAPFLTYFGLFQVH
Method: (§3) Briefly, Maxisorp plates were coated with mouse Fn14:Fc (extracellular domain of mouse Fn14 (amino acids 1-75 of SEQ ID NO: 98) fused to Fc portion of human IgG1) as described above for human Fn14:Fc, followed by blocking and washing. […] After 1 h of incubation at room temperature and four washes, biotinylated anti-mouse TWEAK antibody at 125 ng/ml in blocking buffer was added for 1 h at room temperature, followed by another four wash steps. The TWEAK antibody was detected by incubation with streptavidin-HRP, diluted 1:5000 in blocking buffer, for 30 minutes at room temperature. Signal was developed and absorbance measured as described above.

[5] = target: T5, Biotinylated TWEAK (Example 7) (Homo sapiens (Human), UniProt O43508 99-249, Biotinylated (sites not given), captured on a streptavidin chip. The active form is a soluble homotrimer; one protomer is given.); assay: Biacore crossblocking on immobilised biotinylated TWEAK; antibody 2 injected after saturating antibody 1 = TW-301chi (competitor m4), 100 nM each
T5 sequence: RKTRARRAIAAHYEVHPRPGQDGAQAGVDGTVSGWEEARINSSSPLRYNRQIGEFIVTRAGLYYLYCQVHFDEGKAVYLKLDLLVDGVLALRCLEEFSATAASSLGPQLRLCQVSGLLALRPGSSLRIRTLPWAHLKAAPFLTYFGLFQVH
Method: (§4) Because of the individual biochemical properties of the TWEAK protein another method had to be developed using TWEAK as ligand. Biotinylated TWEAK was immobilized on the streptavidin-coated chip surface and epitope coverage of consecutively injected antibodies (antibody 1) was measured. The aim was to detect the relative binding levels of a secondary antibody (antibody 2) in the presence of an already bound primary antibody. From these relative binding levels a quotient was calculated (Ab2/Ab1, molar ratio given in %, table 3).
(§5) 5 nM of biotinylated TWEAK was immobilized at 20 μl/min for 1 min on a streptavidin coated sensor flow cell. Primary and secondary mAbs were consecutively injected at 10 μl/min for 4 min into the system at 100 nM each until saturation of the respective TWEAK epitopes was achieved. As a reference an SA coated flow cell was used.

[6] = target: T5, Biotinylated TWEAK (Example 7); assay: Biacore crossblocking on immobilised biotinylated TWEAK; antibody 2 injected after saturating antibody 1 = TW-304chi (competitor m5), 100 nM each
Method: as §4, §5

[7] = target: T5, Biotinylated TWEAK (Example 7); assay: Biacore crossblocking on immobilised biotinylated TWEAK; antibody 2 injected after saturating antibody 1 = TW-305chi (competitor m6), 100 nM each
Method: as §4, §5

[8] = target: T1, Human recombinant soluble TWEAK …; assay: cell-based or functional assay; remark: listed apart in the source
[9] = target: T6, Recombinant human TWEAK (R&D Systems; Cat. #1090-TW/CF) (human, UniProt O43508 97-249, limits assumed); assay: cell-based or functional assay
T6 sequence: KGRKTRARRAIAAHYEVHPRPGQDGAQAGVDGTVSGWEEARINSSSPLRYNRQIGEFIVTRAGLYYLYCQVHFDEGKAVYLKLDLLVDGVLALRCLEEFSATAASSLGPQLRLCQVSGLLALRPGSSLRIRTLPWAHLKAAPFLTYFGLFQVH

[10] = target: T2, Biotinylated human soluble TWEAK (amino …); assay: SPR (Biacore), biotinylated soluble TWEAK on streptavidin chip, 25 C
Method: as §1

[11] = target: T2, Biotinylated human soluble TWEAK (amino …); assay: SPR (Biacore), biotinylated soluble TWEAK on streptavidin chip, 37 C
human Tweak-Fc [12] = target: T7, human Tweak-Fc (human, UniProt O43508 106-249, limits assumed); assay: SPR (BIAcore T100), TWEAK ligand (Tweak-Fc) amine-coupled on C1 chip, antibody as analyte, 25 C
T7 construct: not shown: Fc part
T7 sequence: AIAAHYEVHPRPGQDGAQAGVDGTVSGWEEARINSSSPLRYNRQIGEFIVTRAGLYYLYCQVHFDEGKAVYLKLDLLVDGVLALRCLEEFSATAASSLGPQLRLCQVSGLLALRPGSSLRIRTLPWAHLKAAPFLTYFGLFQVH
Method: (§6) Around 100 resonance units (RU) of TWEAK was immobilized on the C1 chip surface at pH 5.0 using an amine coupling kit supplied by the GE Healthcare. The sample and system buffer was PBS-T (10 mM phosphate buffered saline including 0.05% Tween20) pH 7.4. Association was measured by injection the bispecific antibody in various concentrations in solution for 3 min at a flow of 30 μl/min starting with 50 nM in 1:1 dilutions. The dissociation phase was monitored for up to 10 min and triggered by switching from the sample solution to running buffer. The surface was regenerated by three times 30 sec. washing with a 3M MgCl2 solution at a flow rate of 30 μl/min. Bulk refractive index differences were corrected by subtracting the response obtained from a blank-coupled surface. Blank injections are also subtracted (=double referencing). For calculation of apparent KD and other kinetic parameters the Langmuir 1:1 model was used.

human Tweak-Fc [13] = target: T7, human Tweak-Fc; assay: SPR (BIAcore T100), TWEAK ligand (Tweak-Fc) amine-coupled on C1 chip, antibody as analyte, 25 C, 1:1 model
Method: as §6

[14] = target: T3, human Flag-tagged soluble TWEAK (amino …); assay: receptor interaction ELISA: Flag-TWEAK preincubated with antibody, then on coated human Fn14:Fc (competitor m21)
Method: as §2

human Tweak-Fc [15] = target: T7, human Tweak-Fc; assay: SPR (BIAcore T100), TWEAK ligand (Tweak-Fc) amine-coupled on C1 chip, antibody as analyte, 25 C, apparent KD, 1:1 model
[16] = target: T4, Mouse soluble TWEAK (untagged, Example …); assay: receptor interaction ELISA: mouse soluble TWEAK preincubated with antibody, then on coated mouse Fn14:Fc (competitor m22)
Method: as §3

human Tweak-Fc [17] = target: T7, human Tweak-Fc; assay: SPR (BIAcore T100), TWEAK ligand (Tweak-Fc) amine-coupled on C1 chip, Fab as analyte, 25 C
human Tweak-Fc [18] = target: T7, human Tweak-Fc; assay: SPR (BIAcore T100), TWEAK ligand (Tweak-Fc) amine-coupled on C1 chip, Fab as analyte, 25 C, 1:1 model
human Tweak-Fc [19] = target: T7, human Tweak-Fc; assay: SPR (BIAcore T100), TWEAK ligand (Tweak-Fc) amine-coupled on C1 chip, Fab as analyte, 25 C, apparent KD, 1:1 model
Method: as §6

Inhibition of IL-8 Secretion IC50 [ng/ml] (A375 cells) [1]: 121 ng/mL
t/2 diss [min] 25° C. [2]: 110 min
IC50 [3]: 2.8 ng/mL
IC50 [4]: 6.4 ng/mL
MR % (Ab2/Ab1, molar ratio) [5]: 0%
MR % (Ab2/Ab1, molar ratio) [6]: 0%
MR % (Ab2/Ab1, molar ratio) [7]: 0%
B1: <TWEAK> 301chi (antibody, human IgG1, kappa, V domains shown)
VH: QSLEESGGGLVKPGASLTLTCTASGFTFNANYWICWVRQAPGKGLEWIACIYGGGNSGAYYASWATGRFTISRTSSTTVTLQMTSLTAADTATYFCARGPISRDLWGPGTLVTVSL
VL: DVVMTQTPASVSEPVGGTVTIKCQASQSIYSSLAWYQQKPGQPPKLLIYDAFDLASGVSSRFTGSGSGTQFTLTISDLECADAATYYCQSTDYGNSWDGNPFGGGTEVVVTR

Inhibition of IL8-Secretion [ng/ml] (A375 cells) [8]: 197 ng/mL
IC50 (nM) per valency, Tweak induced HFLS proliferation (CellTiter Glo) [9]: 0.152 nM
Biacore t/2 diss. [min] 25° C. human [10]: 110 min
Biacore t/2 diss. [min] 37° C. human [11]: 147 min
T½ (human Tweak-Fc [12]): 3.37 h
koff (human Tweak-Fc [13]): 5.71e-05 s⁻¹
kon (human Tweak-Fc [13]): 2.27e+06 M⁻¹ s⁻¹
IC50 [14]: 2.3 ng/mL
Kd (human Tweak-Fc [15]): 25.2 pM
IC50 [16]: 8.2 ng/mL
B2: Humanized <TWEAK> 305- antibody 27 (antibody, V domains shown)
VH: QVQLVQSGAEVKKPGSSVKVSCKASGFDFSTYYMSWVRQAPGQGLEWMGTVYVRQGTTYYASWLNGRVTITADESTSTAYMELSSLRSEDTAVYYCARGGYNYDDAFVIWGQGTLVTVSS
VL: DIQMTQSPSSVSASVGDRVTITCQASQNIYSNLAWYQQKPGKAPKLLIYTASYLASGVPSRFSGSGSGTDYTLTISSLQPEDFATYYCQTAYYNSRPDTVAFGGGTKVEIK

T½ (human Tweak-Fc [17]): 2.72 h
koff (human Tweak-Fc [18]): 7.09e-05 s⁻¹
kon (human Tweak-Fc [18]): 4.72e+06 M⁻¹ s⁻¹
Kd (human Tweak-Fc [19]): 15 pM
B3: <TWEAK>305 (antibody 27) -Fab (Fab, V domains shown)
VH: QVQLVQSGAEVKKPGSSVKVSCKASGFDFSTYYMSWVRQAPGQGLEWMGTVYVRQGTTYYASWLNGRVTITADESTSTAYMELSSLRSEDTAVYYCARGGYNYDDAFVIWGQGTLVTVSS
VL: DIQMTQSPSSVSASVGDRVTITCQASQNIYSNLAWYQQKPGKAPKLLIYTASYLASGVPSRFSGSGSGTDYTLTISSLQPEDFATYYCQTAYYNSRPDTVAFGGGTKVEIK

From patent US20150132307A1 (Hoffmann-La Roche, published 2015)
